This passage reports binding signal results from US20240200044, “EVOLUTION OF TALENS” (President and Fellows of Harvard College, published 2024).

One series has as its target omega-Zif268-DBD fusion (Mus musculus, UniProt P08046 SEQ:103-190). The series can be described thus: one_hybrid; pIII-luciferase induction, site at -62, E. coli.
Series [1] addresses ATM-L-directed TALE-omega K59E (synthetic construct, K59E). In words: one_hybrid; versus canonical ATM-L TALE. To be noted: tags: N-terminal FLAG-NLS, C-terminal RNAP omega.

B1: Zif268 consensus site (dsDNA)
DNA 1: GCGTGGGCG
DNA 2: CGCCCACGC
As for B1, in the series with omega-Zif268-DBD fusion, the binding signal was at least 10 fold.

B2: ATM left half-site on-target (dsDNA)
DNA 1: TGAATTGGGATGCTGTTT
DNA 2: AAACAGCATCCCAATTCA
B2 came in with a binding signal in series [1] of 1.5 fold increase.

B3: ATM left half-site 5'A (dsDNA)
DNA 1: AGAATTGGGATGCTGTTT
DNA 2: AAACAGCATCCCAATTCT
modifications: [1 (T>A)]
Molecule B3 displayed a binding signal in series [1] of 2 fold increase.
